Here are results for one molecule from publication PMC5686206.

Substrate in this test: T1, OCP lacking the NTE comprising the first 20 amino acids (ΔNTE), 6xHis-tagged (Synechocystis sp. PCC 6803) (UniProt P74102)
T1 sequence: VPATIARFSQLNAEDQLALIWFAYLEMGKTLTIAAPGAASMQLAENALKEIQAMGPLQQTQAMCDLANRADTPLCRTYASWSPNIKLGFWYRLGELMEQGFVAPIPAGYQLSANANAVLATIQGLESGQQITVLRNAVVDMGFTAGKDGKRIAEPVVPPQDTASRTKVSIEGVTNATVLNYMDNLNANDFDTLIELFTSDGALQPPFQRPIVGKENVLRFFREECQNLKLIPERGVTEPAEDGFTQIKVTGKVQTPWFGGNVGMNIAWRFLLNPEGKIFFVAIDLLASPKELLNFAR

B1: Fluorescence Recovery Protein (FRP), 6xHis-tagged (natural protein)
chain: MLQTAEAPWSQAETQSAHALFRKAYQRELDGLLATVQAQASQITQIDDLWKLHDFLSAKRHEIDGKYDDRQSVIIFVFAQLLKEGLVQAEELTFLAADKQSKIKALARL
In the case of B1, the amplitude a3 (yield) of the slow component (C3) of flash-induced absorption transients at 550 nm, ΔNTE OCP + FRP (FRP to ΔNTE OCP ratio 1.6), 36 °C was found to be 76% and the time constant t1 of the fast component (C1) of flash-induced absorption transients at 550 nm, ΔNTE OCP + FRP (FRP to ΔNTE OCP ratio 1.6), 36 °C was determined as 70.4 µs.
